Legend:
[1] = target: T1, secreted L-arabinose isomerase (L-AI) from L. sakei 23 K, purified from L. lactis MRS40 (Latilactobacillus sakei, UniProt Q38UH2); test: bioconversion to D-tagatose, cysteine carbazole assay; assay type: biochemical; details: 10 g/l D-galactose, 0.3 mg/ml enzyme, pH 5.0, 6.0 and 7.0
T1 construct: gene araA; araA fused behind SPUsp45 signal peptide and LEISSTCDA propeptide (pSEC:LEISS:araA); secreted by Lactococcus lactis NZ9000 htrA clpP (MRS40), purified from supernatant; about 56 kDa monomer, homotetramer
T1 sequence (Q38UH2 2-474 limits assumed): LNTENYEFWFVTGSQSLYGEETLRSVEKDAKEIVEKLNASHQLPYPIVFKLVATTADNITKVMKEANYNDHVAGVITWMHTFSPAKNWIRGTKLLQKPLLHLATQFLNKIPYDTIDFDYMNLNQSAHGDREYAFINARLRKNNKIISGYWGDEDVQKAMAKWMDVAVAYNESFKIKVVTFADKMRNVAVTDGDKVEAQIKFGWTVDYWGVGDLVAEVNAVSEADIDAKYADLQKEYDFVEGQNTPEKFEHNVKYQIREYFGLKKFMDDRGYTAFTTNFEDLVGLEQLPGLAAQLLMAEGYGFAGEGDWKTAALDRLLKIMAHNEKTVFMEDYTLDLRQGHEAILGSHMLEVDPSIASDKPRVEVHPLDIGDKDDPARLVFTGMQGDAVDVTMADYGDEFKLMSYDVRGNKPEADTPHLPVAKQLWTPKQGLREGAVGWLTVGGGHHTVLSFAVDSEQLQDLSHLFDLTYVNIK

[2] = target: the molecule itself; test: SEC; gel filtration chromatography of the purified L-AI preparations, calibrated with protein markers of 669, 440, 232, 140 and 66 kDa; read together with SDS-PAGE (monomer about 56 kDa)

Molecule	bioconversion to D-tagatose, cysteine carbazole assay [1]	stoichiometry N [2]
OC[C@H]1OC(O)[C@H](O)[C@@H](O)[C@H]1O (stereo partly drawn) [D-galactose]	The purified secreted L-AI displayed a high efficiency to isomerize the D-galactose into D-tagatose	
L-arabinose isomerase (L-AI) from Lactobacillus sakei 23 K, produced intracellularly in E. coli (enzyme, UniProt Q38UH2 1-474, looked up, L-arabinose isomerase (araA gene product) of Lactobacillus sakei 23 K; apparent molecular weight of the monomer about 56 kDa on SDS-PAGE; also called intracellular form; purified L-AI from E. coli; source: E. coli BL21 (strain MRS36, plasmid pMR36), over-expressed and purified as previously reported [30]) MLNTENYEFWFVTGSQSLYGEETLRSVEKDAKEIVEKLNASHQLPYPIVFKLVATTADNITKVMKEANYNDHVAGVITWMHTFSPAKNWIRGTKLLQKPLLHLATQFLNKIPYDTIDFDYMNLNQSAHGDREYAFINARLRKNNKIISGYWGDEDVQKAMAKWMDVAVAYNESFKIKVVTFADKMRNVAVTDGDKVEAQIKFGWTVDYWGVGDLVAEVNAVSEADIDAKYADLQKEYDFVEGQNTPEKFEHNVKYQIREYFGLKKFMDDRGYTAFTTNFEDLVGLEQLPGLAAQLLMAEGYGFAGEGDWKTAALDRLLKIMAHNEKTVFMEDYTLDLRQGHEAILGSHMLEVDPSIASDKPRVEVHPLDIGDKDDPARLVFTGMQGDAVDVTMADYGDEFKLMSYDVRGNKPEADTPHLPVAKQLWTPKQGLREGAVGWLTVGGGHHTVLSFAVDSEQLQDLSHLFDLTYVNIK		4
secreted L-arabinose isomerase (L-AI) from Lactobacillus sakei 23 K, secreted by L. lactis MRS40 (pSEC:LEISS:araA) (enzyme) LEISSTCDAALNTENYEFWFVTGSQSLYGEETLRSVEKDAKEIVEKLNASHQLPYPIVFKLVATTADNITKVMKEANYNDHVAGVITWMHTFSPAKNWIRGTKLLQKPLLHLATQFLNKIPYDTIDFDYMNLNQSAHGDREYAFINARLRKNNKIISGYWGDEDVQKAMAKWMDVAVAYNESFKIKVVTFADKMRNVAVTDGDKVEAQIKFGWTVDYWGVGDLVAEVNAVSEADIDAKYADLQKEYDFVEGQNTPEKFEHNVKYQIREYFGLKKFMDDRGYTAFTTNFEDLVGLEQLPGLAAQLLMAEGYGFAGEGDWKTAALDRLLKIMAHNEKTVFMEDYTLDLRQGHEAILGSHMLEVDPSIASDKPRVEVHPLDIGDKDDPARLVFTGMQGDAVDVTMADYGDEFKLMSYDVRGNKPEADTPHLPVAKQLWTPKQGLREGAVGWLTVGGGHHTVLSFAVDSEQLQDLSHLFDLTYVNIK		4
